For assay [1], the target named is T1, human Her2 with an Fc tag (AcroBiosystem, catalog number HE2-H5253) (human, UniProt P04626 23-652).
T1 construct: extracellular domain; Bought protein, loaded on Protein A biosensors; also called Her2 antigen; extracellular region of the Her2 protein; not shown: Fc tag of the bought protein, not described
Briefly: BLI (OctetQKe); Fc-tagged human Her2 loaded on Protein A biosensors, antibody in two-fold dilutions, 1:1 fit. The protocol: (§1) Affinity assay: The OctetQKe instrument (Pall Life Sciences) was used to determine the affinity of the anti-Her2 antibody to the extracellular region of the Her2 protein. Briefly, human Her2 with an Fc tag in PBST (AcroBiosystem, catalog number HE2-H5253) was loaded onto the surface of ProteinA Capture Biosensors (ProA). Immobilization level was set at […]. Then a 60-second biosensor baseline step was performed, and the antigen/antibody association was analyzed for 180 seconds on the biosensor to test the antibody/antigen. The test molecules were then applied at a two-fold concentration gradient. The data analysis software version 8.2 (PALL/ForteBio) was used to evaluate the Octet data, and the full-fit 1:1 modal was used to determine the Kd value.

The target of assay [2] is T1, human Her2 with an Fc tag …. Description: BLI (OctetQKe); Fc-tagged human Her2 loaded on Protein A biosensors, antibody in two-fold dilutions, 1:1 fit; column head Kdis. The protocol: as §1
Assay [3] shares this target. Briefly: BLI (Octet QKe), Her2-Fc on Protein A biosensors, 1:1 fit; single-site bivalent Bi-Bs. As for the experimental part: as §1
(§2) In order to detect the binding ability of the antibodies to Her2 antigen, biofilm interference technology (BLI) was used to analyze the interaction between the antibodies and Her2 antigen.
Background: BLI is a label-free optical method that tracks binding on a fibre tip over time.

Assay [4] shares this target. Description: BLI (Octet QKe), Her2-Fc on Protein A biosensors, 1:1 fit; Bp-Bs with dual Her2 binding sites. The protocol: as §1, §2
Assay [5] has the same target. Description: BLI (Octet QKe), Her2-Fc on Protein A biosensors, 1:1 fit. The protocol:
as §1, §2

Broadly, the kon is the rate constant with which the complex forms. The low end stands for slower complex formation, the high end for faster complex formation. As usually defined, the koff is a measure of how fast the partners let go of each other. High values mean fast dissociation, low ones slow dissociation.

B1: bivalent anti-Her2 bispecific antibody Bi-Bs (anti-CD3 UCHT1 Fab with anti-Her2 VHH1 on both CL and CH1) (bispecific antibody)
chain 1: EIVLTQSPATLSLSPGERATLSCSASSGVNYMHWYQQKPGQAPRRWIYDTSKLASGVPARFSGSGSGTSYSLTISSLEPEDFAVYYCHQRGGSYTFGGGTKLEIKRKLTVAAPSVFIFPPSDEQLKSGTASVVCLLNNFYPREAKVQWKVDNALQSGNSQESVTEQDSKDSTYSLSSTLTLSKADYEKHKVYACEVTHQGLSSPVTKSFNRGECGSQVQLVQSGGGLVQAGGSLRLSCAASGRTFSSYAMAWFRQAPGKEREFVAAISWSGANIYVADSVKGRFTISRDNAKDTVYLQMNSLKPEDTAVYYCAVKLGFAPVEERQYDYWGQGTQVTVSS
chain 2: QVQLVQSGAEVKKPGASVKVSCKTSGYTFTSNWMHWVRQAPGQGLEWMGEIDPSDSYTNYNQKFKGRVTITVDKSASTAYMELSSLRSEDTAVYYCARGSNPYYYAMDYWGQGTLVTVSSKLASTKGPSVFPLAPSSKSTSGGTAALGCLVKDYFPEPVTVSWNSGALTSGVHTFPAVLQSSGLYSLSSVVTVPSSSLGTQTYICNVNHKPSNTKVDKKVGSGGGGSGGGGSGGGGSQVQLVQSGGGLVQAGGSLRLSCAASGRTFSSYAMAWFRQAPGKEREFVAAISWSGANIYVADSVKGRFTISRDNAKDTVYLQMNSLKPEDTAVYYCAVKLGFAPVEERQYDYWGQGTQVTVSS
notes: 3 is VL-CL-VHH1, so the heavy and light labels are probably swapped in this sentence; Expressed in E. coli and purified on Ni Sepharose
On to B1, for which the kon in assay [1] was 163000 M⁻¹ s⁻¹. This molecule registered a koff in assay [2] of 0.000497 s⁻¹. Moreover, the Kd in assay [3] worked out at 3.06 nM.

B2: bispecific antibody Bp-Bs with dual Her2 binding sites (anti-CD3 UCHT1 Fab with anti-Her2 VHH1 on CL and anti-Her2 VHH2 on CH1) (bispecific antibody)
light: EIVLTQSPATLSLSPGERATLSCSASSGVNYMHWYQQKPGQAPRRWIYDTSKLASGVPARFSGSGSGTSYSLTISSLEPEDFAVYYCHQRGGSYTFGGGTKLEIKRKLTVAAPSVFIFPPSDEQLKSGTASVVCLLNNFYPREAKVQWKVDNALQSGNSQESVTEQDSKDSTYSLSSTLTLSKADYEKHKVYACEVTHQGLSSPVTKSFNRGECGSQVQLVQSGGGLVQAGGSLRLSCAASGRTFSSYAMAWFRQAPGKEREFVAAISWSGANIYVADSVKGRFTISRDNAKDTVYLQMNSLKPEDTAVYYCAVKLGFAPVEERQYDYWGQGTQVTVSS
heavy: QVQLVQSGAEVKKPGASVKVSCKTSGYTFTSNWMHWVRQAPGQGLEWMGEIDPSDSYTNYNQKFKGRVTITVDKSASTAYMELSSLRSEDTAVYYCARGSNPYYYAMDYWGQGTLVTVSSASTKGPSVFPLAPSSKSTSGGTAALGCLVKDYFPEPVTVSWNSGALTSGVHTFPAVLQSSGLYSLSSVVTVPSSSLGTQTYICNVNHKPSNTKVDKKVEPKSCDKTHTCAAGGGGSGGGGSGGGGSQVQLQESGGGSVQAGGSLRLSCRASGFTFSSYAMSWVRQPPGKELEWVSAIWGGGDSQHYADSVKGRFTISRDNAKNTLYLQLNSLKTEDTGMYYCVKDRGPFFSGSKYVLGAADRGQGTQVTVSS
notes: VHHs are linked by (GGGGS)3; Expressed in E. coli and purified on Ni Sepharose; About 79 kDa
Regarding B2, in assay [1], the kon worked out at 215000 M⁻¹ s⁻¹. This molecule also registered a koff in assay [2] of 2.33e-05 s⁻¹. The Kd in assay [4] came out at 0.109 nM.

B3: anti-Her2-VHH2-Fc (Fc fusion)
chain: QVQLQESGGGSVQAGGSLRLSCRASGFTFSSYAMSWVRQPPGKELEWVSAIWGGGDSQHYADSVKGRFTISRDNAKNTLYLQLNSLKTEDTGMYYCVKDRGPFFSGSKYVLGAADRGQGTQVTVSS
notes: Called a single-site bivalent antibody; 2; not shown: Fc and any linker are not described
Take B3: in assay [1], the kon stood at 29800 M⁻¹ s⁻¹. In addition, the koff in assay [2] was determined as 8.99e-05 s⁻¹. The molecule further showed a Kd in assay [5] of 3.02 nM.

B4: anti-Her2-VHH1-Fc (Fc fusion)
chain: QVQLVQSGGGLVQAGGSLRLSCAASGRTFSSYAMAWFRQAPGKEREFVAAISWSGANIYVADSVKGRFTISRDNAKDTVYLQMNSLKPEDTAVYYCAVKLGFAPVEERQYDYWGQGTQVTVSS
notes: Called a single-site bivalent antibody; 1; also called single-site bivalent antibody anti-Her2 VHH1-Fc; not shown: Fc and any linker are not described
B4 came in with a kon in assay [1] of 298000 M⁻¹ s⁻¹. In assay [2], this molecule displayed a koff of 0.00263 s⁻¹. In assay [5], this molecule returned a Kd of 8.85 nM.
